Test results: patent publication US20180066015A1, “INHIBITORS OF GROWTH FACTOR ACTIVATION ENZYMES” (Washington University, published 2018)
Like-named read-outs stand apart in the source and are kept apart here. Starred links: 1 amine or outer side, 2 acyl side, 3 side chain; linkers in the order of their positions; H or OH if unused. Kbt‑6‑CONH = ketobenzothiazole-6-CONH (amide link to Val), O=C(c1ccc2nc([*:1])sc2c1)[*:2]

Key:
[1] = target: T1, matriptase (Charles Craik, UCSF), recombinant (Homo sapiens (Human), UniProt Q9Y5Y6); test: fluorogenic inhibition assay
T1 sequence: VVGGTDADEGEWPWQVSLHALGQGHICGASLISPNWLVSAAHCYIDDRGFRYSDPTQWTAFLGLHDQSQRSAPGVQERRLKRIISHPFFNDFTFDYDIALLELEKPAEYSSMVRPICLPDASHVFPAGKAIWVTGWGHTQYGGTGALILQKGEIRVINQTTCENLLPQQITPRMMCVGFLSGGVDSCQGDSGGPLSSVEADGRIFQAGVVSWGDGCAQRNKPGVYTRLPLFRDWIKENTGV

[2] = target: T2, Recombinant human hepsin (4776-SE-010, R&D Systems), activated (human, UniProt P05981); test: fluorogenic inhibition assay
[3] = target: T1, matriptase (Charles Craik, UCSF), …; test: fluorogenic inhibition assay; remark: listed apart in the source
[4] = target: T2, Recombinant human hepsin (4776-SE-010, …); test: fluorogenic inhibition assay; remark: listed apart in the source
[5] = target: Hepatocyte Growth Factor Activator (HGFA) serine protease domain, N-terminal His-tag, recombinant (Homo sapiens (Human)) (UniProt Q04756); test: fluorogenic inhibition assay
[6] = target: Hepatocyte Growth Factor Activator (HGFA) serine protease domain, N-terminal His-tag, recombinant (Homo sapiens (Human)) (UniProt Q04756); test: fluorogenic inhibition assay; remark: listed apart in the source
[7] = target: Trypsin; test: selectivity inhibition assay
[8] = target: Factor Xa; test: selectivity inhibition assay
[9] = target: recombinant thrombin; test: selectivity inhibition assay

Binder: Ac-KQLR-{Kbt‑6‑CONH-Val-NH2} [Ac-KQLR(SEQ ID NO: 1)-Kbt-Val-NH2]
- Ki [1]: 6.98 nM
- Ki [2]: 0.29 nM
- fold decrease of activity against Ac-KQLR-kbt (7) [3]: > 10 fold
- fold decrease of activity against Ac-KQLR-kbt (7) [4]: > 3 fold
- Ki [5]: 12 nM
- Ki [6]: 13 nM
- fold change of potency against Ac-KQLR-kbt (7) [6]: 2 fold
- Ki [7]: 0.07 nM
- Ki [8]: 66 nM
- Ki [9]: 3.21 µM
